The values that follow come from the Human Domainome abundance scans (Beltran et al. 2025).

The labels stand for the following.
B1: Gamma-crystallin C, residues 4 to 79; numbered along this chain, P07315 (parent)
chain: ITFYEDRAFQGRSYETTTDCPNLQPYFSRCNSIRVESGCWMLYERPNYQGQQYLLRRGEYPDYQQWMGLSDSIRSC

± gives the uncertainty stated by the source.

Variants of B1 are the subject of this data set. The experiment in a line: abundance fitness (aPCA) (normalised: wild type 0, dead -1); higher = more abundant; growth selection in yeast, the domain comes from the species named. Particulars: Homo sapiens.
As to ITFYEDRAFQGRSYEDTTDCPNLQPYFSRCNSIRVESGCWMLYERPNYQGQQYLLRRGEYPDYQQWMGLSDSIRSC [T16D], the abundance fitness was -0.215 ± 0.066.
The value for ITFYEDRAFQGRSYEVTTDCPNLQPYFSRCNSIRVESGCWMLYERPNYQGQQYLLRRGEYPDYQQWMGLSDSIRSC [T16V] was 0.031 ± 0.083.
For ITFYEDRAFQGRSYEQTTDCPNLQPYFSRCNSIRVESGCWMLYERPNYQGQQYLLRRGEYPDYQQWMGLSDSIRSC [T16Q], the abundance fitness came out at 0.027 ± 0.081.
As for ITFYEDRAFQGRSYECTTDCPNLQPYFSRCNSIRVESGCWMLYERPNYQGQQYLLRRGEYPDYQQWMGLSDSIRSC [T16C], the abundance fitness came to 0.003 ± 0.13.
With ITFYEDRAFQGRSYEITTDCPNLQPYFSRCNSIRVESGCWMLYERPNYQGQQYLLRRGEYPDYQQWMGLSDSIRSC [T16I], the abundance fitness is -0.098 ± 0.13.
The value for ITFYEDRAFQGRSYEATTDCPNLQPYFSRCNSIRVESGCWMLYERPNYQGQQYLLRRGEYPDYQQWMGLSDSIRSC [T16A] was 0.074 ± 0.091; that for ITFYEDRAFQGRSYEPTTDCPNLQPYFSRCNSIRVESGCWMLYERPNYQGQQYLLRRGEYPDYQQWMGLSDSIRSC [T16P] was -0.342 ± 0.18; that for ITFYEDRAFQGRSYELTTDCPNLQPYFSRCNSIRVESGCWMLYERPNYQGQQYLLRRGEYPDYQQWMGLSDSIRSC [T16L] was 0.013 ± 0.086.
The result for ITFYEDRAFQGRSYEETTDCPNLQPYFSRCNSIRVESGCWMLYERPNYQGQQYLLRRGEYPDYQQWMGLSDSIRSC [T16E] reads -0.291 ± 0.12; that for ITFYEDRAFQGRSYEKTTDCPNLQPYFSRCNSIRVESGCWMLYERPNYQGQQYLLRRGEYPDYQQWMGLSDSIRSC [T16K], -0.011 ± 0.18.
With ITFYEDRAFQGRSYEWTTDCPNLQPYFSRCNSIRVESGCWMLYERPNYQGQQYLLRRGEYPDYQQWMGLSDSIRSC [T16W], the abundance fitness came out at 0.012 ± 0.085.
Regarding ITFYEDRAFQGRSYENTTDCPNLQPYFSRCNSIRVESGCWMLYERPNYQGQQYLLRRGEYPDYQQWMGLSDSIRSC [T16N], the abundance fitness is -0.116 ± 0.13.
Turning to ITFYEDRAFQGRSYEFTTDCPNLQPYFSRCNSIRVESGCWMLYERPNYQGQQYLLRRGEYPDYQQWMGLSDSIRSC [T16F], the abundance fitness stood at 0.084 ± 0.1.
ITFYEDRAFQGRSYEGTTDCPNLQPYFSRCNSIRVESGCWMLYERPNYQGQQYLLRRGEYPDYQQWMGLSDSIRSC [T16G]: the abundance fitness was -0.089 ± 0.058.
The result for ITFYEDRAFQGRSYEYTTDCPNLQPYFSRCNSIRVESGCWMLYERPNYQGQQYLLRRGEYPDYQQWMGLSDSIRSC [T16Y] reads 0.202 ± 0.17; that for ITFYEDRAFQGRSYERTTDCPNLQPYFSRCNSIRVESGCWMLYERPNYQGQQYLLRRGEYPDYQQWMGLSDSIRSC [T16R], -0.078 ± 0.081.
Turning to ITFYEDRAFQGRSYEMTTDCPNLQPYFSRCNSIRVESGCWMLYERPNYQGQQYLLRRGEYPDYQQWMGLSDSIRSC [T16M], the abundance fitness was 0.074 ± 0.17.
For the variant ITFYEDRAFQGRSYESTTDCPNLQPYFSRCNSIRVESGCWMLYERPNYQGQQYLLRRGEYPDYQQWMGLSDSIRSC [T16S], the abundance fitness is -0.034 ± 0.093.
As to ITFYEDRAFQGRSYEHTTDCPNLQPYFSRCNSIRVESGCWMLYERPNYQGQQYLLRRGEYPDYQQWMGLSDSIRSC [T16H], the abundance fitness came to 0.007 ± 0.096.
For the variant ITFYEDRAFQGRRYETTTDCPNLQPYFSRCNSIRVESGCWMLYERPNYQGQQYLLRRGEYPDYQQWMGLSDSIRSC [S13R], the abundance fitness is 0.03 ± 0.066.
The result for ITFYEDRAFQGRMYETTTDCPNLQPYFSRCNSIRVESGCWMLYERPNYQGQQYLLRRGEYPDYQQWMGLSDSIRSC [S13M] reads -0.075 ± 0.077; that for ITFYEDRAFQGRTYETTTDCPNLQPYFSRCNSIRVESGCWMLYERPNYQGQQYLLRRGEYPDYQQWMGLSDSIRSC [S13T], -0.043 ± 0.13; that for ITFYEDRAFQGRLYETTTDCPNLQPYFSRCNSIRVESGCWMLYERPNYQGQQYLLRRGEYPDYQQWMGLSDSIRSC [S13L], -0.157 ± 0.091.
As for ITFYEDRAFQGRKYETTTDCPNLQPYFSRCNSIRVESGCWMLYERPNYQGQQYLLRRGEYPDYQQWMGLSDSIRSC [S13K], the abundance fitness amounted to 0.148 ± 0.17.
For the variant ITFYEDRAFQGRVYETTTDCPNLQPYFSRCNSIRVESGCWMLYERPNYQGQQYLLRRGEYPDYQQWMGLSDSIRSC [S13V], the abundance fitness was found to be 0.058 ± 0.1.
Turning to ITFYEDRAFQGRQYETTTDCPNLQPYFSRCNSIRVESGCWMLYERPNYQGQQYLLRRGEYPDYQQWMGLSDSIRSC [S13Q], the abundance fitness turned out to be 0.061 ± 0.1.
Regarding ITFYEDRAFQGRYYETTTDCPNLQPYFSRCNSIRVESGCWMLYERPNYQGQQYLLRRGEYPDYQQWMGLSDSIRSC [S13Y], the abundance fitness is -0.271 ± 0.2.
For ITFYEDRAFQGRSYQTTTDCPNLQPYFSRCNSIRVESGCWMLYERPNYQGQQYLLRRGEYPDYQQWMGLSDSIRSC [E15Q], the abundance fitness was found to be 0.026 ± 0.18.
Turning to ITFYEDRAFQGRSYWTTTDCPNLQPYFSRCNSIRVESGCWMLYERPNYQGQQYLLRRGEYPDYQQWMGLSDSIRSC [E15W], the abundance fitness is 0.069 ± 0.14.
Take ITFYEDRAFQGRSYMTTTDCPNLQPYFSRCNSIRVESGCWMLYERPNYQGQQYLLRRGEYPDYQQWMGLSDSIRSC [E15M]: the abundance fitness was -0.013 ± 0.15.
The result for ITFYEDRAFQGRSYSTTTDCPNLQPYFSRCNSIRVESGCWMLYERPNYQGQQYLLRRGEYPDYQQWMGLSDSIRSC [E15S] reads 0.005 ± 0.081.
The result for ITFYEDRAFQGRSYNTTTDCPNLQPYFSRCNSIRVESGCWMLYERPNYQGQQYLLRRGEYPDYQQWMGLSDSIRSC [E15N] reads 0.075 ± 0.28.
As for ITFYEDRAFQGRSYYTTTDCPNLQPYFSRCNSIRVESGCWMLYERPNYQGQQYLLRRGEYPDYQQWMGLSDSIRSC [E15Y], the abundance fitness is -0.057 ± 0.2.
The value for ITFYEDRAFQGRSYATTTDCPNLQPYFSRCNSIRVESGCWMLYERPNYQGQQYLLRRGEYPDYQQWMGLSDSIRSC [E15A] was -0.113 ± 0.14; that for ITFYEDRAFQGRSYGTTTDCPNLQPYFSRCNSIRVESGCWMLYERPNYQGQQYLLRRGEYPDYQQWMGLSDSIRSC [E15G] was -0.072 ± 0.057; that for ITFYEDRAFQGRSYKTTTDCPNLQPYFSRCNSIRVESGCWMLYERPNYQGQQYLLRRGEYPDYQQWMGLSDSIRSC [E15K] was 0.165 ± 0.33.
